The data set is described as follows: yeast display, Sf9 membrane polyspecificity reagent, FACS + sequencing; frameworks hold sequencing errors. In outline:
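Genes from sorted yeast were amplified by colony PCR, read by MiSeq 2 × 250 sequencing and filtered on CDR length. These cells carried a synthetic nanobody library in Saccharomyces cerevisiae BJ5465 and were sorted by FACS into low and high (top ~1%) gates on anti-HA and streptavidin fluorescence. Polyreactivity is labelled according to the gate of origin.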
As for “QVQLVESGGGLVQAGGSLRLSCAASGIIFPYYAMGWSRQGPGKERELVAGISSSGGITYADSVKGRFTISRDNAKYTVYLQMNSLKPEDTAVYYCNAEYQWLEYDYWGQGTQVTVSS”, the “polyreactivity (PSR sort gate)” value is listed as “low polyreactivity”. The same measure for “QVQLVESGGGLVQAGGSLRLSCAASGIIFPYYAMGWYRPAPGKERELVAAITSSGGSTYYADSVKGRFTISRDNAKNTVYLQMNSLKPEDSAVYYCAAQTWGHGGDSWGQGTQVTVSS”: “high polyreactivity”. In the case of “QVQLVESGGGLVQAGGSLRLSCAASGIIFPYYTMGWYRQAPGKERELVARITNGGRTYYADSVKGRFTISRDNAKNTVYLQMISLKPEDTAVYYCNAGRYYIGGYWGQGTQVTVSS”, the “polyreactivity (PSR sort gate)” value was “high polyreactivity”. Take “QVQLVESGGGLVQAGGSLRLSCAASGIIFQGYVMGWYRQAPGKERELVAVISRTRGSTYYADSVKGRFTISRDNAKNTVYLQMNSLKPEDTAVYYCAAGTPRLRYLQGHRMNYWGQGTQVTVSS”: the “polyreactivity (PSR sort gate)” value is “high polyreactivity”. The same measure for “QVQLVESGGGLVQAGGSLRLSCAASGIIFQNYAMGWYRPAPGKERELVAVISNTGSTNYADSVKGRFTISRDNAKNTVYLQMNSLKPEDTAVYYCAAEFRVVDWLWFDYWGQGTQVTVSS”: “high polyreactivity”; for “QVQLVESGGGLVQAGGSLRLSCAASGIIFQSYTMGWYRQPPGKERELVAAIDSGGSTYYADSVKGRFTISRDNAKNTVYLQMNSLKPEDTAVYYCATDYPLSWSPLYDYDYWGQGTQVTVSS”: “low polyreactivity”; for “QVQLVESGGGLVQAGGSLRLSCAASGIIFRDYDMGWYRQAPGKERELVAAITWDGGSTYYADSVKGRFTISRDNAKNTVYLQMNSLTPEDTAVYYCAADSRYHYYVGYYYWGQGTQVTVSS”: “high polyreactivity”.

For “QVQLVESGGGLVQAGGSLRLSCAASGIIFRGNAMGWYRQAPGKERELVAGISSRGGSTYYADSVKGRFTISRDNAKNTVYLQMNSLKPEDTAVYYCAAQYRSYLSGYGYWGQGTQVTVSS”, the “polyreactivity (PSR sort gate)” value is given as “high polyreactivity”. On to “QVQLVESGGGLVQAGGSLRLSCAASGIIFRGYVMGLYIQAPGKERELVAAINSSTGSTYYADSVKGRFTISRDNAKNTVYLQMNSLKPEDTAVYYCNAEDRGSTYVDFDYWGQGTQVTVSS”, for which the “polyreactivity (PSR sort gate)” value is listed as “low polyreactivity”.

In the case of “QVQLVESGGGLVQAGGSLRLSCAASGIIFRLNAMGWYRQAPGIERELVAAILRRGGSTYYADSVKGRFTISRDNAKNTVYLQMNSLKPEDTAVYYCAKDPHGSDFGYWGQGTQVTVSS”, the “polyreactivity (PSR sort gate)” value was “low polyreactivity”. With “QVQLVESGGGLVQAGGSLRLSCAASGIIFRNYAMGWYRPAPGKEREFVASITKRGGSTYYADSVKGRFTISRDNAKNTVYLQINSLKPEDTAVYYCNTQWYRGRTEYGYWGQGTQVTVSS”, the “polyreactivity (PSR sort gate)” value is reported as “high polyreactivity”.

For “QVQLVESGGGLVQAGGSLRLSCAASGIIFRPYAMGWYRQAPGKERELVAAITWSGTSTYYADSVKGRFTISRDNAKNTVYLQMNSLKPEDTAVYYCAATWSYGVSWYEYWGQGTQVTVSS”, the “polyreactivity (PSR sort gate)” value is reported as “high polyreactivity”. The same measure for “QVQLVESGGGLVQAGGSLRLSCAASGIIFRRNAMGWYRQAPGKERELVASITSGGSTNYADSVKGRFTISRDNAKNTVYLQMNSLKPEDTAVYYCATVRKYRAMDYWGQGTQVTVSS”: “high polyreactivity”; for “QVQLVESGGGLVQAGGSLRLSCAASGIIFRRYAMGWYRQAPGKERELVAAIRTSGGNTYYADSVKGRFTISRDNAKNTVYLQMNSLKPEDTAVYYCAARRHYTYGNGPSRGGQMDYWGQGTQVTVSS”: “high polyreactivity”; for “QVQLVESGGGLVQAGGSLRLSCAASGIIFRRYAMGWYRQAPGKERELVAAITSGGSTYYADSVKGRFTISRDNAKNTVYLQLHSLKPEDTAVYYCNKGGYAIRYDYYWGQGTQVTVSS”: “high polyreactivity”.

Take “QVQLVESGGGLVQAGGSLRLSCAASGIIFRRYAMGWYRQAPGKERELVATITRSGSTNYADSVKGRFTISRDNAKNTVYLQMNSLKPEDTAVYYCNADYIRGGWYSEDYWGQGTQVTVSS”: the “polyreactivity (PSR sort gate)” value is recorded as “high polyreactivity”. On to “QVQLVESGGGLVQAGGSLRLSCAASGIIFRRYAMGWYRQAPVKERELVAAITRGGITYYADSVKGRFTISRDNAKNTVYLQMNSLKPEDTAVYYCAALAYPQEYDYWGQGTQVTVSS”, for which the “polyreactivity (PSR sort gate)” value is reported as “low polyreactivity”. Consider “QVQLVESGGGLVQAGGSLRLSCAASGIIFRSYAMGWYRQAPGKERELVAAITGGGTTNYADSVKGRFTISRDNAKNTVYLQMNSLKPEDTEVYYCNAGLDWFWFNEMDYWGQGTQVTVSS”, for which the “polyreactivity (PSR sort gate)” value is listed as “low polyreactivity”. Take “QVQLVESGGGLVQAGGSLRLSCAASGIIFRSYAMGWYRQAPGKERELVASITSGGSTNYADSVKGRFTNSRDNAKNTVYLQMNSLKPEDTAVYYCAADYYYTSFGGYDYWGQGTQVTVSS”: the “polyreactivity (PSR sort gate)” value is reported as “high polyreactivity”.

Take “QVQLVESGGGLVQAGGSLRLSCAASGIIFRWYAMGWYRQAPGKERELVAAISRSGSSTYYADSVKGRFTISRDNAKNTVYLQMNSLKPEDTAVYYCNAEYQAPTEKGRYYYPWPYEYWGQGTQVTVSS”: the “polyreactivity (PSR sort gate)” value is recorded as “high polyreactivity”. For “QVQLVESGGGLVQAGGSLRLSCAASGIIFRYNAMGWYRPAPGKERELVAAITSGGITKYADSVKGRFTISRDNAKNTVYLQMNSLKPEDTAVYYCNAEYGFFRAGSRGEYWGQGTQVTVSS”, the “polyreactivity (PSR sort gate)” value was “low polyreactivity”.

In the case of “QVQLVESGGGLVQAGGSLRLSCAASGIIFRYNAMGWYSQAPGKDRELVAAITYRGGSTRYADSVKGRFTISRDNAKNTVYLQMNSLKPEDTAVYYCNAQRRTYIYDYWGQGTQVTVSS”, the “polyreactivity (PSR sort gate)” value is “high polyreactivity”. As to “QVQLVESGGGLVQAGGSLRLSCAASGIIFRYNTMGWYRQEPGKERELVAAISWSGDSTYYADSVKGRFTISRDNAKNTVYLQMNSLKPEDTAVYYCARSQFSRSPSRMGYWGEGTQVTVSS”, the “polyreactivity (PSR sort gate)” value is “high polyreactivity”.

As for “QVQLVESGGGLVQAGGSLRLSCAASGIIFRYYAMGLYRQAPGKERELVAAITTGGSTYYADSVKGRFTISRDNAKNTVYLQMNSLKPEDTAVYYCAAQILVRHIPYYYWGQGTQVTVSS”, the “polyreactivity (PSR sort gate)” value is “high polyreactivity”.

Turning to “QVQLVESGGGLVQAGGSLRLSCAASGIIFRYYAMGWYRQAPGKEREFVAAINYSGGSTYYADSVKGRFTISRDNAKYSVYLLMNSLKPEDTAVYYCAARSYTYTAPIYGYWGQGTQVTVSS”, the “polyreactivity (PSR sort gate)” value was “high polyreactivity”. As for “QVQLVESGGGLVQAGGSLRLSCAASGIIFRYYAMGWYRQAPGKERELVAGITSNGGSTYYADSVKGRFTISRDNAKNTVYLQMNSLKPVDTAVYYCAAVSLYVWWALEYWGQGTQVTVSS”, the “polyreactivity (PSR sort gate)” value is listed as “high polyreactivity”. The entry for “QVQLVESGGGLVQAGGSLRLSCAASGIIFSDYAMGWYRQAPGKERELVATITRSVRTSYADSVKGRFTISRDNAKNTVYLQMNSLKPEDTAVYYCNADFVGAVIAYDYLGQGTQVTVSS” is “low polyreactivity”; for “QVQLVESGGGLVQAGGSLRLSCAASGIIFSGYAMGWYRQAPGKERELVAAITGSGDITYYADSVKGRFTISRDNAKNTVYLQMNSLKPEDTAVYYCADVASSQYRAEEYNYWGQGTQVTVSS” it is “low polyreactivity”; for “QVQLVESGGGLVQAGGSLRLSCAASGIIFSLYAMGAYIQATGKERELVAAITTGGRTYYADSVKGRFTISRDNAKYSVYLQMNSLKPEDTAVYYCAALGPWQGGTTLSTNRGYWGQGTQVTVSS” it is “high polyreactivity”.

Take “QVQLVESGGGLVQAGGSLRLSCAASGIIFSPYARGWYRQAPGKERELVAAISYSGGSTYYADSVKGRFTISRDNAKNTVYLQMNSLKPEDTAVYYCAVVYSYYLAVLGYWDYDYWGQGTQVTVSS”: the “polyreactivity (PSR sort gate)” value is reported as “low polyreactivity”. “QVQLVESGGGLVQAGGSLRLSCAASGIIFSQYAMGWYRQAPGKERELVASISRSGGITYYADSVKGRFTISRDNAKNTVYLQMNSLKPEDTAVYYCNAAKACREQWTSFDYWGQGTQVTVSS”: the “polyreactivity (PSR sort gate)” value was “high polyreactivity”. On to “QVQLVESGGGLVQAGGSLRLSCAASGIIFSRYAMGWYRQAPGKERELVAAISTSGGRTFYADSVKGRFTISRDYAKNTVYLQMNSLKPEDTAVYYCNAEIQRGPGRGGYNYWGQGTQVTVSS”, for which the “polyreactivity (PSR sort gate)” value is on record as “high polyreactivity”. With “QVQLVESGGGLVQAGGSLRLSCAASGIIFSSNVMGWYRQAPGKERELVAAISRSGDRSYYADSVKGRFTISRDNAKITVYLQMNSLKPEDTAVYYCAGRVRVNVVSNGYWGQGTQVTVSS”, the “polyreactivity (PSR sort gate)” value was “high polyreactivity”. The entry for “QVQLVESGGGLVQAGGSLRLSCAASGIIFSSNVMGWYRQAPGKERELVAAISRSGDRTYYADSVKGRFTISRDNAKNTVYLQMNSLKPEDTAVYYCAARERVNVVSNGYWGQGTQVTVSS” is “high polyreactivity”. For “QVQLVESGGGLVQAGGSLRLSCAASGIIFSVYAMGWYRQAPGKERELVAAITRSGSRTYYADSVKGRFTISRDNAKNTVYLQMNSLKPEDTAVYYCNAVPRVTRPSAVEEYDYWGQGTQVTVSS”, the “polyreactivity (PSR sort gate)” value was “high polyreactivity”. Take “QVQLVESGGGLVQAGGSLRLSCAASGIIFSWNTMGWYRQAPGKERELVAAISSSGGSTYYADSVKGRFTISRDNAKNTVYLQMNSLKPEDTAVYYCAADVYHWIHEYDYWGQGTQVTVSS”: the “polyreactivity (PSR sort gate)” value was “low polyreactivity”. Consider “QVQLVESGGGLVQAGGSLRLSCAASGIIFSWYDMGWYRQAPGKERELVAAISSGDRTNYADSVKGRFTISRDNAKNTVYLQMNSLKPEDTAVYYCAADLFPIAGEYDYWGQGTQVTVSS”, for which the “polyreactivity (PSR sort gate)” value is “high polyreactivity”. Take “QVQLVESGGGLVQAGGSLRLSCAASGIIFSYNTMGWYRPAPGKERELVAAISRTGGRTYYADSVKGRFTNSRDNAKITVYLQMNSLKPEDTAVYYCAAEQQYASMGYDYWGLGTQVTVSS”: the “polyreactivity (PSR sort gate)” value was “high polyreactivity”. Take “QVQLVESGGGLVQAGGSLRLSCAASGIIFSYYTMGWYRQAPGKERELVAAISARGGRTYYADSVKGRFTISRDNAKNTVYLQMNSLKPEDTAVYYCAASWSTEYYWGQGTQVTVSS”: the “polyreactivity (PSR sort gate)” value was “high polyreactivity”. In the case of “QVQLVESGGGLVQAGGSLRLSCAASGIIFSYYTMGWYRQAPGKERELVAAISRTGGRTYYADSVKGRFTISRDNAKNTVYLQMNSLKPEDTAVYYCAAEQQYASICYDYWGQGTEVTVSS”, the “polyreactivity (PSR sort gate)” value is “high polyreactivity”. For “QVQLVESGGGLVQAGGSLRLSCAASGIIFTGYTMGWYRQAPGKERELVAAITWRGGCTYYADSVKGRFTISRDNAKNTVYLQMNSLKPEDTAVYYCAAEGWYSWDDDYWGQGTQVTVSS”, the “polyreactivity (PSR sort gate)” value is “low polyreactivity”.

The record behind these values is the nanobody polyreactivity screen of Harvey et al. (2022).
